# Measured values taken from the DeepSol protein solubility set.
# Assay: soluble on expression in E. coli; label from the status in PepcDB or PDB records
row,Sequence,soluble on expression in E. coli
1,MSLSIADNLKQVLAELPQGVRLVAVSKFHPNEAIEEAYQAGQRIFGESKVQEMTAKYETLPKDIEWHFIGHLQTNKIKYMIPYVEMIHGIDTYKLLAEVNKQAAKAGRIVNCLIQIHVAQEETKFGFSPEECKDMLHAGEWKELSHIRICGLMGMASNTDDVEQINREFCLLNRLFQEIKANWFADSDTFRELSMGMSHDYHEAIAAGSTLVRVGSKIFGERNYNTEGHHHHHH,soluble
2,SLSPKFKTIIIDDIPSCVEDIKKIILKDKRFEVVATASNGLEGVDQIRLHNPDLVLTDIEMPVMNGFDMVIGLREMLDLTPTIIFITVYDQYAIQAIRCSAFDFILKTGLDQELPMALNEYVKKRAAKQPLLSKQIESLIKSFERNKQIIIRSNICDNFINPMDIIYISTSKNHANSIYLKNGECIATNQSLSHFEKILSETDFFRLNKSNIININFIKEIRKETNAFRRKYVYMKYTEADIKLAIPPGKYAKLFDFIEENSSEG,not soluble
3,MRRDQKMTELNNQIRSLQEEHGKEKLLAAATKILGKKVPTDYVRVLDPLELQASLQQIDAAVQDVLEKGKAREEAYGEKASLIKQKVKLKTAVELKEAEAFMQIQGEGRNQFAYVNDQKVALTNDTLRDAYRLHYSKEERQQLTDVEQELASIDIKIYQTKDAWETAKESADLVKAKAYVQANLLKFLA,not soluble
4,MGSDKIHHHHHHMGVVRTDKWLKRYVVQWPKAQVAGEKFELQQKLIISLLKDAFHTDHLDELQQQLLGQGLFLPTDDIELSYRALQDRAIWHLVHKQYTELREKWKGPNVPIYLFPVNTANPTIREQLGMKMGVSYRDKIVLFIGEMTSDQDVQALVTHEYHHCCRLTQLKLYEGTMTLLESMVMEGLAEKAVAEEVGRDALAIWTSRYDKADLHSLWALLLEQRMMKGRDRHYPYLFGGVGGIPEWAGYYLGYRIVDQAMKNDPTLTTTSMMKMEAEAILQRSFSAKRGRAVAVRGREISRDHS,not soluble
5,MPGFNYGGKGDGTGWSSERGSGPEPGGGSHGNSGGHDRGDSSNVGNESVTVMKPGDSYNTPWGKVIINAAGQPTMNGTVMTADNSSMVPYGRGFTRVLNSLVNNPVSLEHHHHHH,soluble
6,MSAEVQESSGKRGKGKQKKMTVRVDFTPMVDMNMLLITFFMLCTTLSKPQTMEISMPSNDKDITEQQKSMVKASQAITLLLGADNKLYYYEGEPNYKDYTSLKETSYGASGLRAVLLQKNAAAVNQVRALKQQKLDLKITDDEYKKKVSEIKSGKNTPTVIIKATDDASYMNLIDALDEMQICNIGKYVITDIAEADEFLIKNYDAKGELSQNLADK,not soluble
7,MAHHHHHHMEDMYEMQHSNLRCLPENYNLRYYYYHLLSWPQLLYVQQDYNRNTVGYVLGKMDDEEVPDKKHGHITSLAVLRSHRKLGIASRVMRATMKEMDAEYGAHYCSLHVRKTNDAALHLYQDTLGFRCVGVEEKYYMDEEDAYHMKSFFHQANPGSYVDDHKRLIRKTVPGELEGGPAAAGASSPAVGGRGGDKNGKRGNDKAAKEISAKEREAAMAELLGLEVGGKGRAAGGGAGGKGKSGNSSGGGGKRGSGRQK,soluble
8,MSLKSWVKMNSWTSEDTKAVKMWFDLDKYREFENISINMLYHEIWARTYFFKPVIEEGMQKTVLKNYMQILDGDPFLIKEKHLNYMDSENKSYQPPYFFITTVDRIANISFACMRKALFIRANTEQYKIDSTIENEYISEIIPEQFPTTIMLEIDLAGGSDDEIAEALRVSLPQWRKVKGVKPAPLDAVRFGYGAIKKLISYRIIPMLDLLAWSERKKVLLSDDRLSRLLYTDEDDDKAIRQGYHIRDADRPFAMKTVETDFLRQFNFFINKNQHVKEMRVSDVMKLSDSEGHHHHHH,not soluble
9,MGSDKIHHHHHHMGLASPWQVSISSFDAEKKRLDIHLDVAPGSTFCCPECGILKLQSFPWSGRDSGFTLLFEAMIMVMARSMAVKAIATIVGEHDTRIWRIVHHYVDQAREMEDYSAVTTVGVDEPSSKRGHNSVTLFADLARSKVLFATEGKDASTVERFRDDLVAHKGNPASVTECCSDMSPACISGIGSHFVNAHLSFDKFHVMQIINHAVDEVRRQEQQERPELKKSRYLWLKNQQNLKAKQRNRLEELSLAKLNLKTARADRMRLAFQECFNQPVTLAESFLKKWCFRAANSISPYPLETARSQDNDGWTHRASWAGI,not soluble
10,MAHHHHHHMGQISSKEDEIEKQNIYATYPGLEQQLDMVFACHDISKQGKLSYKTVEMILRHFLMQCGFMEYVCRFVDENGTLDLKHVSNYLSIKKLMYKLKCCGESMLTLDEMKELVIIFLKKISDTYTEDQTKWLEQMKSSQEQQDKALEEAMYKYEKNILFHHAVKEQQILQNDKKLNEWNENVENAYEAQQEILRQFESSRKKNIDISLEKNNELIIAKDYIDKIKEAATDNKYDNSKCFIYPASSAPCGACTSAGAIIHHRRYKEKRRKKEYSLCL,not soluble
11,MAHHHHHHMPTEAHGWAALSAKSKLEPFAFQRRDVGPDDVVIAIAYCGVCHSDVHQARDEWDGSTFPMVPGHEIVGHVTKVGSEVTKYKAGDRVGVGCMVDSCMKCRQCERGLEQYCVNGASFTYNSTQQDKKTPTFGGYSDHVVVREHFVVSIPDNLDLCAAAPLLCAGVTTFSPLRYWGVKKGTRVGVVGLGGLGHMAVKLANAMGAEVTVFTRSSNKVEEAENLGAHHVVNTNNEQEMNSIQGTLDVIVDTVGMSHDLRPYMMTLDIDGKLALVGMPEHAHPPLDPRRIIASRQCVGGSNIAGMPETQELLNFCGEHNITATVEKIGIEYINEAYERILASDVRYRFVIDMASLKKE,soluble
12,MGSDKIHHHHHHMQDLNDIALFAAVVKHNGFSAAARDLNVPKSKLSKHVARLEEQLGVRLLERSTRKLRMTEVGRIFYEHAQGLLDGVAAAEAEIAAVRAEPTGVVRLACPIGFTPMLADILPAFHRRYPGVRLLITASNRRIDLIEERIDVALRARDQLDTDSQLIVRKFGEVRQRLAASPTLLARLGEITTDNLSQMPTLSMNEQHPNDVWRLVHATGGAIEIAHRPVVGCSDFLILERAAIEGMGIALLPDHICERAFRTGALVPVLPEWTSGNVMVHLVFPSRHGLLPATRALIDFLAENLIKALERCREVDPRPAASFEI,not soluble
13,MTQIPPSRLHSPLDRLLVEAQRALDTVFGNPPAERPNPAGDTPDAALAPAQRQHAAGLMRINHVGEVCAQGLYFGQAAVARDDHTRQHLLTAAQEETDHLAWCADRLRELESRPSLFNPLWYAGSYALGAVAGLRGDDWSLGFVVETERQVEAHLDEHLETLPETDQRSRAILRVMKIDEARHADHAEQAGARILPPPIPSAMALASKLMKTIAYRFLEHHHHHH,not soluble
14,MIKKITISDLIRMGDEKEREWFMFHAEVERIFNDTEIVGIKYQATITYVIGELDEDVLNTVFESNWNKTAEVLKKHEIEVEDIKIDKNEKKVEIKLKTSGIVYREGLFEFEDIKELLKDVLARKIEEAWISVLQEHGYILEHHHHHH,soluble
15,MSELTQLAQQEKKQTYNFNKLQKRLRRNVGNAIADFGMIEDGDKVMVCLSGGKDSYTLLDILLNLQQSAPIKFDIVAVNLDQKQPGFPEHVLPEYLESIGVDYKIVQENTYGIVKEKIPEGKTTCSLCSRLRRGILYRTATELGATKIALGHHRDDMLATLFLNMFYGGKIKSMPPKLISDDGKQIVIRPLAYCKEKDIEKYAIAKEFPIIPCNLCGSQPNLQRQVVKEMLNTWDRQYPGRLETMFSAMQNITLSHMCDPKLFDFKGIKHGQLIDGIEGDTAFDEERITPMQFEDEDQTDFSNKEMINFKEVN,not soluble
16,VGDFTYSISANLSDFTSKMGNLNGTQFLGNQVKMEGSEYNEWYGYVSDGLFLTQEDVDKSPKLNNSVKVGDIKYKDISGPDGVPDGVISPEYDRVLLGGSLPHYMFGLTFNAAYKGWDFGLTLQGVGSQKSQISAAMIEGLRDNWLNFPTILDGNYWSPKNTDEQNATAKYPRLTRTNRDANFCMSDYWLYNGRYIRLKNLSVGYTLPKAWTTKACMNTVRLYVSGSDLFTISNAPKGWDPEVSTEGYPITTSLIFGVSINF,not soluble
17,MTKAELRRRARAAWRRLDLKALSRAVGAALLPWLRERGFRHILLYHPLPHELNLLPLMEAYPARYYLPKVAGKGLTVHPFGPLAPGPFGLLEPTTPPEDPRVLDLVVVPGLAFDREGYRLGHGQGFYDRFLKEVRAATVGVVPQALLFPALPRDPWDVPVDHLATEAGVEAVKRPAPGPGGLLD,soluble
